The values that follow come from patent publication US20210395381A1 (OSSIANIX, published 2021).

The target in assay [1] is T1, recombinant mouse TfR-1 (mouse, UniProt Q62351 89-763).
T1 construct: Recombinant protein coated at 1 ug/ml in the phage ELISA; also called mTfR1; mouse transferrin receptor-1
The experiment in a line: phage ELISA.

Assay [2] addresses T2, recombinant human TfR-1 (human, UniProt P02786 89-760).
T2 construct: Recombinant protein coated at 1 ug/ml in the phage ELISA; also called hTfR1; human transferrin receptor-1
The experiment in a line: phage ELISA.

Where a chain is given by its changes, count along the chain named.

T2 sequence (P02786 89-760 limits assumed): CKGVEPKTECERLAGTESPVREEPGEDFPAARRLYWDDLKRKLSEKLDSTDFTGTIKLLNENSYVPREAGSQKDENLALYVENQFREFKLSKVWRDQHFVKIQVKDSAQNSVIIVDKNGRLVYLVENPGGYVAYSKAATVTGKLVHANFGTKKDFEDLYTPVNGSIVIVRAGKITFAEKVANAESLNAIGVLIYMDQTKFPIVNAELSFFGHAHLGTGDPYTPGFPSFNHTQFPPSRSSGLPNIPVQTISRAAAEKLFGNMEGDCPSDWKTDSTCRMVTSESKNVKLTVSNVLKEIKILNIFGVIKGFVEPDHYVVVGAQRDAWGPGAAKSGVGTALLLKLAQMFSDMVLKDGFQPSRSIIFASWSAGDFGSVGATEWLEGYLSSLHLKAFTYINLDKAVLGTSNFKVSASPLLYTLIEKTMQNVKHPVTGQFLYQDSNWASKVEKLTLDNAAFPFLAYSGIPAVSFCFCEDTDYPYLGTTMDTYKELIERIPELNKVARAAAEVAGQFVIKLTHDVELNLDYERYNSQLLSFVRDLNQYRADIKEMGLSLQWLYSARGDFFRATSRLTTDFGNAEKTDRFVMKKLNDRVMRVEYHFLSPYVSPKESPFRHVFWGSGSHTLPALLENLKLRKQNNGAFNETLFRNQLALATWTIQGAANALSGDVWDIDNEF
T1 sequence (Q62351 89-763 limits assumed): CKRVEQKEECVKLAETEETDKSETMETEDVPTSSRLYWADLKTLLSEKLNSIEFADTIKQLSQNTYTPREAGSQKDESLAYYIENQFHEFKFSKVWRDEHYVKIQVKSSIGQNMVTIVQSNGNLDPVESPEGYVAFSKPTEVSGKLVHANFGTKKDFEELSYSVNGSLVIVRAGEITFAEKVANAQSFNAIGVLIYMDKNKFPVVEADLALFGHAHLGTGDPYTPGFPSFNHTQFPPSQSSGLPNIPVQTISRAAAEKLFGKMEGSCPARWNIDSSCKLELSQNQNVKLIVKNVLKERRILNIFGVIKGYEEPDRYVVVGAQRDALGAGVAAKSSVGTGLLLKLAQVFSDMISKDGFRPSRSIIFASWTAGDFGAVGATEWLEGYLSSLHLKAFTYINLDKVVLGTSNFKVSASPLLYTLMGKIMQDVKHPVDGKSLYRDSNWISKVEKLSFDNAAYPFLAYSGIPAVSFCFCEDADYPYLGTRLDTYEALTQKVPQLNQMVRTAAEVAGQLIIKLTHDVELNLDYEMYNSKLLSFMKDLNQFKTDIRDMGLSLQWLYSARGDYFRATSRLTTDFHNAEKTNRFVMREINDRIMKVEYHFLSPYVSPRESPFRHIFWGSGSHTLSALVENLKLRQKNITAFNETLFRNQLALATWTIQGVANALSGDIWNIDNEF

B1: Clone 8.1 (VNAR)
VNAR: ARVDQTPQTITKETGESLTINCVLRDSNCALPSTYWYRKKSGSTNEESISKGGRYVETVNSGSKSFSLRINDLTVEDSGTYRCKVLRLLSSILRGCNYRKHDVYGDGTAVTVNA
notes: VNAR on phage; Clone 8 framework
As to B1, the A450 in assay [1] is 0.312 A450; in assay [2] it was 0.371 A450.

B2: Clone 8.6 (VNAR)
VNAR: B1 VNAR with L86I, R87A, L88Q, L89W, S90W
notes: as for B1
For the molecule B2, the A450 is 0.164 A450 in assay [1] and 0.199 A450 in assay [2].

B3: Clone 8.14 (VNAR)
VNAR: B1 VNAR with L86I, R87A, L88Q, R94G, G95Y, N97Y
notes: as for B1
As for B3, the values for the A450 in assay [1] and in assay [2] were 0.095 A450 and 0.067 A450, respectively.

B4: Clone 8.4 (VNAR)
VNAR: B1 VNAR with L86K, R87L, L88W
notes: as for B1
On to B4, for which the A450 in assay [1] came out at 0.188 A450; in assay [2], 0.173 A450.

B5: Clone 8.12 (VNAR)
VNAR: B1 VNAR with L86R, R87W, L88R
notes: as for B1
With B5, the values for the A450 in assay [1] and in assay [2] were 0.1 A450 and 0.108 A450, respectively.

B6: Clone 8.10 (VNAR)
VNAR: B1 VNAR with L86I, R87A, L88Q, S90A, S91I, I92E
notes: as for B1
In the case of B6, the values for the A450 in assay [1] and in assay [2] were 0.101 A450 and 0.072 A450, respectively.

B7: Clone 8.11 (VNAR)
VNAR: B1 VNAR with L86I, R87A, L88Q, L93Y, R94P
notes: as for B1
Consider B7, for which the A450 in assay [1] came to 0.101 A450; in assay [2] it was 0.066 A450.

B8: Clone 8.17 (VNAR)
VNAR: B1 VNAR with L86I, R87A, L88Y, L89R, S90K, L93V
notes: as for B1
As for B8, in assay [2], the A450 turned out to be 0.091 A450.

B9: Clone 8.15 (VNAR)
VNAR: B1 VNAR with L86M, R87W, L88N
notes: as for B1
As to B9, the A450 in assay [1] and in assay [2] was 0.095 A450 throughout.

B10: Clone 8.7 (VNAR)
VNAR: B1 VNAR with L86I, R87A, L88Q, R94K, G95A, N97K
notes: as for B1
Take B10: the A450 turned out to be 0.123 A450 in assay [1] and 0.087 A450 in assay [2].

B11: Clone 8.16 (VNAR)
VNAR: B1 VNAR with L86I, R87A, L88K, S90F, R94C
notes: as for B1
Regarding B11, the results for the A450 in assay [1] and in assay [2] were 0.092 A450 and 0.138 A450, respectively.

B12: Clone 8.3 (VNAR)
VNAR: B1 VNAR with L86V, L88F
notes: as for B1
As to B12, the A450 was 0.194 A450 in assay [1] and 0.27 A450 in assay [2].

B13: Clone 8.97 (VNAR)
VNAR: B1 VNAR with L86I, R87A, L88Q, R99N, K100I, H101D
notes: as for B1
With B13, the A450 in assay [2] is 0.057 A450.

B14: Clone 8.5 (VNAR)
VNAR: B1 VNAR with L86I, R87A, L88Q, S90G, S91W, I92W
notes: as for B1
On to B14, for which the A450 in assay [1] was determined as 0.172 A450; in assay [2], 0.152 A450.

B15: Clone 8.2 (VNAR)
VNAR: B1 VNAR with R87F, L88N
notes: as for B1
For B15, the A450 in assay [1] was determined as 0.242 A450; in assay [2], 0.315 A450.

B16: Clone 8.13 (VNAR)
VNAR: B1 VNAR with L86I, R87A, L88Q, S90A, S91L, I92A
notes: as for B1
In the case of B16, the A450 in assay [1] came out at 0.096 A450; in assay [2], 0.075 A450.

B17: Clone 8.137 (VNAR)
VNAR: B1 VNAR with L86I, R87A, L88Q, R99F, K100G, H101K
notes: as for B1
As for B17, the A450 in assay [2] was determined as 0.076 A450.

B18: Clone 8.9 (VNAR)
VNAR: B1 VNAR with L86W, R87N, L88M
notes: as for B1
Regarding B18, the results for the A450 in assay [1] and in assay [2] were 0.108 A450 and 0.119 A450, respectively.

B19: Clone 8.8 (VNAR)
VNAR: B1 VNAR with L86F, R87A, L88P
notes: as for B1
On to B19, for which the A450 in assay [1] stood at 0.118 A450; in assay [2], 0.103 A450.
